According to patent publication US20080207498A1, “Methods for Treating Alzheimer's Disease” (priority 2005, published 2008):
No end group written: not given here.

Assays:
[1] = target: Preformed immune complex of peroxidase and rabbit anti-peroxidase IgG (PAP complex) (horseradish) (UniProt P00433); assay: competition reverse ELISA: PAP pre-incubated with peptide, residual PAP binding to C1q-coated plate
[2] = target: Preformed immune complex of peroxidase and rabbit anti-peroxidase IgG (PAP complex) (horseradish) (UniProt P00433); assay: competition reverse ELISA: PAP pre-incubated with peptide, residual PAP binding to FcγIII-coated plate
[3] = target: Preformed immune complex of peroxidase and rabbit anti-peroxidase IgG (PAP complex) (horseradish) (UniProt P00433); assay: competition reverse ELISA: PAP pre-incubated with peptide, residual PAP binding to FcγIIa-coated plate
[4] = target: Preformed immune complex of peroxidase and rabbit anti-peroxidase IgG (PAP complex) (horseradish) (UniProt P00433); assay: competition reverse ELISA: PAP pre-incubated with peptide, residual PAP binding to FcγIIb-coated plate
[5] = target: Preformed immune complex of peroxidase and rabbit anti-peroxidase IgG (PAP complex) (horseradish) (UniProt P00433); assay: competition reverse ELISA: PAP pre-incubated with peptide, residual PAP binding to plate coated with human wt tau
[6] = target: Preformed immune complex of peroxidase and rabbit anti-peroxidase IgG (PAP complex) (horseradish) (UniProt P00433); assay: competition reverse ELISA: PAP pre-incubated with peptide, residual PAP binding to plate coated with human wt β amyloid peptide 1-40

Sequence of Preformed immune complex of peroxidase and rabbit anti-peroxidase IgG (PAP complex) (horseradish) (P00433 31-338, one chain of several): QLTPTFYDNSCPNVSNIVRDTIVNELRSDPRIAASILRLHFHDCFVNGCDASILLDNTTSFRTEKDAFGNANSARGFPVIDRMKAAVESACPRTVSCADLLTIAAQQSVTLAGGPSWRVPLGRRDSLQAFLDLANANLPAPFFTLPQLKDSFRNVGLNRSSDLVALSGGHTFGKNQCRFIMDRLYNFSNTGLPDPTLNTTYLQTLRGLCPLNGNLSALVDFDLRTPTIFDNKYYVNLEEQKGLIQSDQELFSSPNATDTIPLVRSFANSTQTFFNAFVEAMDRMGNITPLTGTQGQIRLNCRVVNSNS

Row | Binder | OD 405 nm [1] | OD 405 nm [2] | OD 405 nm [3] | OD 405 nm [4] | OD 405 nm [5] | OD 405 nm [6]
1 | DCAFHLGELVWCT [Peptide … (SEQ ID NO:3)] | 0.859 OD | 0.81 OD | 0.66 OD | 0.51 OD | – | –
2 | APPCAFHLGELVWCT (not fully specified; cysteine pairing not given here) [Peptide … (SEQ ID NO:15)] | 0.983 OD | 0.88 OD | 0.605 OD | 0.38 OD | – | –
3 | APPCARHLGELVWCT (not fully specified; cysteine pairing not given here) [Peptide … (SEQ ID NO:14)] | 0.567 OD | 0.709 OD | 0.956 OD | 0.768 OD | – | –
4 | APPDCAWHLGELVWCT [Peptide … (SEQ ID NO:16)] | 0.389 OD | 0.67 OD | 0.509 OD | 0.496 OD | 0.059 OD | 0.885 OD
5 | APPCAWHLGELVWCT (not fully specified; cysteine pairing not given here) [Peptide … (SEQ ID NO:13)] | 1.15 OD | 0.53 OD | 0.658 OD | 0.562 OD | – | –
